Results from patent US20200255474.

Biological target: recombinant PHB2
Sequence (chain, as listed by the source): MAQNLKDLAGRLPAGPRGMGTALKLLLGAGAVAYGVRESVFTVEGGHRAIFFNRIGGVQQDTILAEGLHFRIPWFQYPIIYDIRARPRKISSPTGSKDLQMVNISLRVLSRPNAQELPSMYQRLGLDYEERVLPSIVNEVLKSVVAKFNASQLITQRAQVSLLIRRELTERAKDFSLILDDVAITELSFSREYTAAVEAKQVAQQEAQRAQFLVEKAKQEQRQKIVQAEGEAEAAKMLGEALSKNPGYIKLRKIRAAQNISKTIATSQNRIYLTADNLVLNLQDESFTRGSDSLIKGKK

B1: recombinant MK5 (protein)
chain: MSEESDMDKAIKETSILEEYSINWTQKLGAGISGPVRVCVKKSTQERFALKILLDRPKARNEVRLHMMCATHPNIVQIIEVFANSVQFPHESSPRARLLIVMEMMEGGELFHRISQHRHFTEKQASQVTKQIALALRHCHLLNIAHRDLKPENLLFKDNSLDAPVKLCDFGFAKIDQGDLMTPQFTPYYVAPQVLEAQRRHQKEKSGIIPTSPTPYTYNKSCDLWSLGVIIYVMLCGYPPFYSKHHSRTIPKDMRRKIMTGSFEFPEEEWSQISEMAKDVVRKLLKVKPEERLTIEGVLDHPWLNSTEALDNVLPSAQLMMDKAVVAGIQQAHAEQLANMRIQDLKVSLKPLHSVNNPILRKRKLLGTKPKDSVYIHDHENGAEDSNVALEKLRDVIAQCILPQAGKGENEDEKLNEVMQEAWKYNRECKLLRDTLQSFSWNGRGFTDKVDRLKLAEIVKQVIEEQTTSHESQ
phosphorylation of PHB2 (Phos-tag SDS-PAGE), molar ratio PHB2:MK5=1:0.25: 6.5% phosphorylation
phosphorylation of PHB2 (Phos-tag SDS-PAGE), molar ratio PHB2:MK=1:2 or more: a band for 75% phosphorylation was detected

B2: recombinant TTK (protein)
chain: MESEDLSGRELTIDSIMNKVRDIKNKFKNEDLTDELSLNKISADTTDNSGTVNQIMMMANNPEDWLSLLLKLEKNSVPLSDALLNKLIGRYSQAIEALPPDKYGQNESFARIQVRFAELKAIQEPDDARDYFQMARANCKKFAFVHISFAQFELSQGNVKKSKQLLQKAVERGAVPLEMLEIALRNLNLQKKQLLSEEEKKNLSASTVLTAQESFSGSLGHLQNRNNSCDSRGQTTKARFLYGENMPPQDAEIGYRNSLRQTNKTKQSCPFGRVPVNLLNSPDCDVKTDDSVVPCFMKRQTSRSECRDLVVPGSKPSGNDSCELRNLKSVQNSHFKEPLVSDEKSSELIITDSITLKNKTESSLLAKLEETKEYQEPEVPESNQKQWQSKRKSECINQNPAASSNHWQIPELARKVNTEQKHTTFEQPVFSVSKQSPPISTSKWFDPKSICKTPSSNTLDDYMSCFRTPVVKNDFPPACQLSTPYGQPACFQQQQHQILATPLQNLQVLASSSANECISVKGRIYSILKQIGSGGSSKVFQVLNEKKQIYAIKYVNLEEADNQTLDSYRNEIAYLNKLQQHSDKIIRLYDYEITDQYIYMVMECGNIDLNSWLKKKKSIDPWERKSYWKNMLEAVHTIHQHGIVHSDLKPANFLIVDGMLKLIDFGIANQMQPDTTSVVKDSQVGTVNYMPPEAIKDMSSSRENGKSKSKISPKSDVWSLGCILYYMTYGKTPFQQIINQISKLHAIIDPNHEIEFPDIPEKDLQDVLKCCLKRDPKQRISIPELLAHPYVQIQTHPVNQMAKGTTEEMKYVLGQLVGLNSPNSILKAAKTLYEHYSGGESHNSSSSKTFEKKRGKK
phosphorylation of PHB2 (Phos-tag SDS-PAGE), molar ratio PHB2:TTK=1:2 or greater: a band for 75% phosphorylation was clearly detected
phosphorylation of PHB2 (Phos-tag SDS-PAGE), molar ratio TTK:PHB2 1:1: 28% phosphorylation
